Target: SARS-CoV-2 prefusion-stabilized trimeric spike ectodomain (S2Pecto) (SARS-CoV-2;, UniProt P0DTC2 14-1213; P10104 458-484)
Assay: ELISA

B1: COV2-2196 (antibody, V domains shown)
VH: QMQLVQSGPEVKKPGTSVKVSCKASGFTFMSSAVQWVRQARGQRLEWIGWIVIGSGNTNYAQKFQERVTITRDMSTSTAYMELSSLRSEDTAVYYCAAPYCSSISCNDGFDIWGQGTMVTVSS
VL: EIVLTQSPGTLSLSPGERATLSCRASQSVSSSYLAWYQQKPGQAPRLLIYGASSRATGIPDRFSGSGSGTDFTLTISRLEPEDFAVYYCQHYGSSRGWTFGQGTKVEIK
- IC50: 0.058 µg/mL

Source: patent publication US20210300999A1 (published 2021)
